In patent publication US20260132182A1 (published 2026):
Starred links: 1 amine or outer side, 2 acyl side, 3 side chain; linkers in the order of their positions; H or OH if unused. Non-standard residues stand in square brackets, D forms with d. Groups on a side chain read outwards from the residue. *: point of attachment. C20 diacid = O=C(O)CCCCCCCCCCCCCCCCCCC(=O)*; C18 diacid = O=C(O)CCCCCCCCCCCCCCCCC(=O)*; C16 diacid = O=C(O)CCCCCCCCCCCCCCC(=O)*; γGlu = O=C(O)[C@H](CCC(=O)[*:2])N[*:1]; Desaminohistidyl = O=C(CCc1c[nH]cn1)*; εLys = N[C@@H](CCCCN[*:1])C(=O)[*:2]; Trx = NC[C@H]1CC[C@H](C(=O)O)CC1; AEEA = NCCOCCOCC(=O)O; Aib = CC(C)(N)C(=O)O

T1: human amylin-3 (a) receptor (human, UniProt P30988 25-474; O60896 24-148)
T1 sequence (looked up) 1: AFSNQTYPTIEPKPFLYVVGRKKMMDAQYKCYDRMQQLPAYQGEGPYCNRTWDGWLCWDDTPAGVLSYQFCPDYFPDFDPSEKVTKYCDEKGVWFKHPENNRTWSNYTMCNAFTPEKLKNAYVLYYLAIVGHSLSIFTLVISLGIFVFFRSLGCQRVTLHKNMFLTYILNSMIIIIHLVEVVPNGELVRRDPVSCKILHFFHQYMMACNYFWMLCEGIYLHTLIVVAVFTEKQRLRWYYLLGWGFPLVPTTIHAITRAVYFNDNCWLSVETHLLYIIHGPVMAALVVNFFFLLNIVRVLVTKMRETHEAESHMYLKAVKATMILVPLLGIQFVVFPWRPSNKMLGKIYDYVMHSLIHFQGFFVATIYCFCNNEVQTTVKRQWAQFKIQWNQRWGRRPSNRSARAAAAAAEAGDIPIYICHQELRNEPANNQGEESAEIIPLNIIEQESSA
T1 sequence (looked up) 2: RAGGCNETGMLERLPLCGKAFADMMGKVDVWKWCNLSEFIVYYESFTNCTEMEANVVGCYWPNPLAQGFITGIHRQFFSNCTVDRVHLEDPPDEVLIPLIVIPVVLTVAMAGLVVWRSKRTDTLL

B1: Compound 0299 (peptide)
peptide: H[Aib]EGTFTSDVSSYLEEK([AEEA-AEEA-γGlu-C16 diacid])AAREFIAWLVRGRGGGGGEASELSTAALGRLSAELHK([AEEA-AEEA-γGlu-C16 diacid])LATLPRTETGSGSP-NH2
B2: Compound 0297 (peptide)
peptide: H[Aib]EGTFTSDVSSYLEEQAAREFIAWLVRK([AEEA-AEEA-γGlu-C16 diacid])RGGGGGASELSTAALGRLSK([AEEA-AEEA-γGlu-C16 diacid])ELHELATLPRTETGSGSP-NH2
B3: Compound 0296 (peptide)
peptide: H[Aib]EGTFTSDVSSYLEEQAARK([AEEA-AEEA-γGlu-C16 diacid])FIAWLVRGRGGGGGASELSTAALGRLSK([AEEA-AEEA-γGlu-C16 diacid])ELHELATLPRTETGSGSP-NH2
B4: Compound 0433 (peptide)
peptide: HWEGTFTSDK([εLys-AEEA-AEEA-γGlu-Trx-C20 diacid])SSYLEEQAAREFIEWLVRGRGEASELSTAALGRLSAELHELATLPRTETGSGSP-NH2
B5: Compound 0431 (peptide)
peptide: HAEGTFTSDK([AEEA-AEEA-γGlu-Trx-C20 diacid])SSYLEEQAAREFIEWLVRGRGEASELSTAALGRLSAELHELATLPRTETGSGSP-NH2
B6: Compound 0294 (peptide)
peptide: H[Aib]EGTFTSDVSSYLEK([AEEA-AEEA-γGlu-C16 diacid])QAAREFIAWLVRGRGGGGGASELSTAALGRLSK([AEEA-AEEA-γGlu-C16 diacid])ELHELATLPRTETGSGSP-NH2
B7: Compound 0440 (peptide)
peptide: H[Aib]EGTFTSDK([AEEA-AEEA-γGlu-Trx-C20 diacid])SSYLEEQAAREFIEWLVRGRGEASELSTAALGRLSAELHELATLPRTETGSGSP-NH2
B8: Compound 0045 (peptide)
peptide: H[Aib]EGTFTSDVSSYLEGQAAKEFIAWLVRGRK([εLys-AEEA-AEEA-γGlu-C18 diacid])GGEASELSTAALGRLSAELHELATLPRTETGSGSP-NH2
B9: Compound 0417 (peptide)
peptide: H[Aib]EGTFTSK([AEEA-AEEA-γGlu-Trx-C20 diacid])VSSYLEEQAAREFIEWLVRGRGEASELSTAALGRLSAELHELATLPRTETGSGSP-NH2
B10: Compound 0435 (peptide)
peptide: HWEGTFTSDVSSYLEEQAAK([εLys-AEEA-AEEA-γGlu-Trx-C20 diacid])EFIEWLVRGRGEASELSTAALGRLSAELHELATLPRTETGSGSP-NH2
B11: Compound 0436 (peptide)
peptide: H[Aib]EGTFTSDVSSYLEEQAAKEFIEWLVRGRGEASELSTAALGRLSAELHELATLPRTETGSGSP-NH2
modifications: not fully specified (residue 20)
B12: Compound 0415 (peptide)
peptide: H[Aib]EGTFTSDVSSYLEEK([AEEA-AEEA-γGlu-Trx-C20 diacid])AAREFIEWLVRGRGEASELSTAALGRLSAELHELATLPRTETGSGSP-NH2
B13: Compound 0437 (peptide)
peptide: HWEGTFTSDVSSYLEEQAARK([εLys-AEEA-AEEA-γGlu-Trx-C20 diacid])FIEWLVRGRGEASELSTAALGRLSAELHELATLPRTETGSGSP-NH2
B14: Compound 0438 (peptide)
peptide: H[Aib]EGTFTSDVSSYLEEQAAREFIEWLVRGRKEASELSTAALGRLSAELHELATLPRTETGSGSP-NH2
modifications: not fully specified (residue 31)
B15: Compound 0397 (peptide)
peptide: H[Aib]EGTFTSDVSSYLEEK([AEEA-AEEA-γGlu-C16 diacid])AAREFIAWLVRGRGGGGGEASELSTAALGRLSAELHELATLK([AEEA-AEEA-γGlu-C16 diacid])RTETGSGSP-NH2
B16: Compound 0396 (peptide)
peptide: H[Aib]EGTFTSDVSSYLEEK([AEEA-AEEA-γGlu-C16 diacid])AAREFIAWLVRGRGGGGGEASELSTAALGRLSAELHELK([AEEA-AEEA-γGlu-C16 diacid])TLPRTETGSGSP-NH2
B17: Compound 0295 (peptide)
peptide: H[Aib]EGTFTSDVSSYLEEK([AEEA-AEEA-γGlu-C16 diacid])AAREFIAWLVRGRGGGGGASELSTAALGRLSK([AEEA-AEEA-γGlu-C16 diacid])ELHELATLPRTETGSGSP-NH2
B18: Compound 0472 (peptide)
peptide: HAEGTFTSDVSSYLEEK([AEEA-AEEA-γGlu-C18 diacid])AAREFIEWLVRGRGEASELSTAALGRLSAELHELATLPRTETGSGSP-NH2
B19: Compound 0416 (peptide)
peptide: HAEGTFTSK([AEEA-AEEA-γGlu-Trx-C20 diacid])VSSYLEEQAAREFIEWLVRGRGEASELSTAALGRLSAELHELATLPRTETGSGSP-NH2
B20: Compound 0434 (peptide)
peptide: HWEGTFTSDVSSYLEEK([εLys-AEEA-AEEA-γGlu-Trx-C20 diacid])AAREFIEWLVRGRGEASELSTAALGRLSAELHELATLPRTETGSGSP-NH2
B21: Compound 0051 (peptide)
peptide: [Desaminohistidyl]AEGTFTSDVSSYLEEQAAREFIAWLVRGRK([AEEA-AEEA-γGlu-C18 diacid])EASELSTAALGRLSAELHELATLPRTETGSGSP-NH2
B22: Compound 0292 (peptide)
peptide: H[Aib]EGTFTSDK([AEEA-AEEA-γGlu-C16 diacid])SSYLEEQAAREFIAWLVRGRGGGGGASELSTAALGRLSK([AEEA-AEEA-γGlu-C16 diacid])ELHELATLPRTETGSGSP-NH2
B23: Compound 0411 (peptide)
peptide: H[Aib]EGTFTSDVSSYLEEK([AEEA-AEEA-γGlu-C16 diacid])AAREFIAWLVRGRGGGGGEASELSTAALGRLSAELHELATLPRTETGK([AEEA-AEEA-γGlu-C16 diacid])GSP-NH2
B24: Compound 0414 (peptide)
peptide: HAEGTFTSDVSSYLEEK([AEEA-AEEA-γGlu-Trx-C20 diacid])AAREFIEWLVRGRGEASELSTAALGRLSAELHELATLPRTETGSGSP-NH2
B25: Compound 0439 (peptide)
peptide: H[Aib]EGTFTSDVSSYLEEQAARKFIEWLVRGRGEASELSTAALGRLSAELHELATLPRTETGSGSP-NH2
modifications: not fully specified (residue 21)

Molecular target: human GLP-1 receptor (human, UniProt P43220 24-463)
Experiment: cell-based or functional assay

| Binder | Human GLP-1R potency [EC50 (pM)] [pM] |
| --- | --- |
| B1 | 6 |
| B2 | 30.2 |
| B3 | 4 |
| B4 | 30.7 |
| B5 | 10.9 |
| B6 | 13.7 |
| B7 | 5.7 |
| B8 | 19.4 |
| B9 | 97.8 |
| B10 | 92.4 |
| B11 | 15.2 |
| B12 | 10.3 |
| B13 | 12 |
| B14 | 11.8 |
| B15 | 3.8 |
| B16 | 4.8 |
| B17 | 4.8 |
| B18 | 2.8 |
| B19 | 105 |
| B20 | 11.8 |
| B21 | 14.3 |
| B22 | 12 |
| B23 | 3.5 |
| B24 | 11.2 |
| B25 | 8.3 |

Molecular target: T1, human amylin-3 (a) receptor
Experiment: cell-based or functional assay

| Binder | Human AmyR3 potency [EC50 (pM)] [pM] |
| --- | --- |
| B1 | 11.5 |
| B2 | 46 |
| B3 | 29.9 |
| B4 | 12.9 |
| B5 | 11.9 |
| B6 | 34.3 |
| B7 | 10.4 |
| B8 | 25.9 |
| B9 | 21 |
| B10 | 22.3 |
| B11 | 12.3 |
| B12 | 16.1 |
| B13 | 11.8 |
| B14 | 27.5 |
| B15 | 18.5 |
| B16 | 32.8 |
| B17 | 32.7 |
| B18 | 24 |
| B19 | 18.3 |
| B20 | 13.9 |
| B21 | 19.5 |
| B22 | 33.8 |
| B23 | 45.9 |
| B24 | 17.7 |
| B25 | 10.7 |
